Experimental data published in patent US20210246166A1 (Bayer, published 2021).
Numbered stars: 1 amine (or outer) side, 2 acyl side, 3 side chain; on linkers, the order of the positions; unused ones are H or OH. Bridge positions count the residues as written; N and C are the ends. Square brackets hold non-standard residues; d marks the D form. Primed or numbered codes have the meaning given here. Ends that are not written are not given here. * marks the point of attachment. X17 = 2‑((1S,2S)-1-(Amino)-2-methylbutyl)‑1,3‑oxazole‑4‑carboxylic acid, CC[C@H](C)[C@H](N[*:1])c1nc(C(=O)[*:2])co1; Tranexamic″ = tranexamic acid, NC[C@H]1CC[C@@H](C(=O)*)CC1; Pro(trans-4-F) = O=C(O)[C@@H]1C[C@@H](F)CN1; Oic = O=C(O)[C@@H]1C[C@@H]2CCCC[C@@H]2N1; Cyclobutylacetic = O=C(CC1CCC1)*; tBuAla = CC(C)(C)C[C@H](N)C(=O)O; Chg = N[C@H](C(=O)O)C1CCCCC1; Pen = CC(C)(S)[C@H](N)C(=O)O; αMeP = C[C@@]1(C(=O)O)CCCN1; NMeC = CN[C@@H](CS)C(=O)O; NPhGly = O=C(O)CNc1ccccc1; NMeA = CN[C@@H](C)C(=O)O; Orn = NCCC[C@H](N)C(=O)O; Aib = CC(C)(N)C(=O)O; Sar = CNCC(=O)O

T1: Recombinant human MASP1 enzyme (fragment corresponding to amino acids 297-699, C-terminal His Tag) (human, UniProt P48740 297-699)
T1 sequence: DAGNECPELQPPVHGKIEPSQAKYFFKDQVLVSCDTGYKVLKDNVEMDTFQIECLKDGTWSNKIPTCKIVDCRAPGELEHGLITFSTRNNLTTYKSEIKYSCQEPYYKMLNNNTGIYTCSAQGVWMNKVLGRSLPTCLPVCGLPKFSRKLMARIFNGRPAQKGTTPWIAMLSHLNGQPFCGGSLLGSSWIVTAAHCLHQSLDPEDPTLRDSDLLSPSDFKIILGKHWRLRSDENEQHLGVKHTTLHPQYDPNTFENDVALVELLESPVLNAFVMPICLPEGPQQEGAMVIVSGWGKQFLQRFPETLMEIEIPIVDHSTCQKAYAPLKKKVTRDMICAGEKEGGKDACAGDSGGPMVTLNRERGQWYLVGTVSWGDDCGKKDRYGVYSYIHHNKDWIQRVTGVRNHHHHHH

B1: FIC+SRSLP-(Oic)-I-(Pen)+IP-NH2 (peptide)
peptide: FICSRSLP[Oic]I[Pen]IP-NH2
modifications: disulfide 3-11; N-terminus assumed
SMILES: CC[C@H](C)[C@H](NC(=O)[C@@H](N)Cc1ccccc1)C(=O)N[C@H]1CSSC(C)(C)[C@@H](C(=O)N[C@H](C(=O)N2CCC[C@H]2C(N)=O)[C@@H](C)CC)NC(=O)[C@H]([C@@H](C)CC)NC(=O)[C@@H]2C[C@@H]3CCCC[C@@H]3N2C(=O)[C@@H]2CCCN2C(=O)[C@H](CC(C)C)NC(=O)[C@H](CO)NC(=O)[C@H](CCCNC(=N)N)NC(=O)[C@H](CO)NC1=O
B2: ((N-Me)G)-IC+SRSLPPIC+IPD-OH (peptide)
peptide: [Sar]ICSRSLPPICIPD-OH
modifications: disulfide 3-11; N-terminus assumed
SMILES: CC[C@H](C)[C@H](NC(=O)CNC)C(=O)N[C@H]1CSSC[C@@H](C(=O)N[C@H](C(=O)N2CCC[C@H]2C(=O)N[C@@H](CC(=O)O)C(=O)O)[C@@H](C)CC)NC(=O)[C@H]([C@@H](C)CC)NC(=O)[C@@H]2CCCN2C(=O)[C@@H]2CCCN2C(=O)[C@H](CC(C)C)NC(=O)[C@H](CO)NC(=O)[C@H](CCCNC(=N)N)NC(=O)[C@H](CO)NC1=O
B3: (Orn)-IC+SRS-((tBu)A)-PPI-((N-Me)C)+(2-[(1S,2S)-1-(Amino)-2-methylbutyl]-1,3-oxazole-4-carboxylic acid)-D-NH2 (peptide)
peptide: [Orn]ICSRS[tBuAla]PPI[NMeC][X17]D-NH2
modifications: disulfide 3-11; N-terminus assumed
SMILES: CC[C@H](C)[C@H](NC(=O)[C@@H](N)CCCN)C(=O)N[C@H]1CSSC[C@@H](C(=O)N[C@H](c2nc(C(=O)N[C@@H](CC(=O)O)C(N)=O)co2)[C@@H](C)CC)N(C)C(=O)[C@H]([C@@H](C)CC)NC(=O)[C@@H]2CCCN2C(=O)[C@@H]2CCCN2C(=O)[C@H](CC(C)(C)C)NC(=O)[C@H](CO)NC(=O)[C@H](CCCNC(=N)N)NC(=O)[C@H](CO)NC1=O
B4: ((N-Me)A)-IC+SRSLPPIC+IPD-NH2 (peptide)
peptide: [NMeA]ICSRSLPPICIPD-NH2
modifications: disulfide 3-11; N-terminus assumed
SMILES: CC[C@H](C)[C@H](NC(=O)[C@H](C)NC)C(=O)N[C@H]1CSSC[C@@H](C(=O)N[C@H](C(=O)N2CCC[C@H]2C(=O)N[C@@H](CC(=O)O)C(N)=O)[C@@H](C)CC)NC(=O)[C@H]([C@@H](C)CC)NC(=O)[C@@H]2CCCN2C(=O)[C@@H]2CCCN2C(=O)[C@H](CC(C)C)NC(=O)[C@H](CO)NC(=O)[C@H](CCCNC(=N)N)NC(=O)[C@H](CO)NC1=O
B5: ((N-Me)G)-IC+SRSLPP-IC+I-((2-Me)P)-D-OH (peptide)
peptide: [Sar]ICSRSLPPICI[αMeP]D-OH
modifications: disulfide 3-11; N-terminus assumed
SMILES: CC[C@H](C)[C@H](NC(=O)CNC)C(=O)N[C@H]1CSSC[C@@H](C(=O)N[C@H](C(=O)N2CCC[C@@]2(C)C(=O)N[C@@H](CC(=O)O)C(=O)O)[C@@H](C)CC)NC(=O)[C@H]([C@@H](C)CC)NC(=O)[C@@H]2CCCN2C(=O)[C@@H]2CCCN2C(=O)[C@H](CC(C)C)NC(=O)[C@H](CO)NC(=O)[C@H](CCCNC(=N)N)NC(=O)[C@H](CO)NC1=O
B6: GIC+SRSLPPIC+I-(Aib)-D-OH (peptide)
peptide: GICSRSLPPICI[Aib]D-OH
modifications: disulfide 3-11; N-terminus assumed
SMILES: CC[C@H](C)[C@H](NC(=O)CN)C(=O)N[C@H]1CSSC[C@@H](C(=O)N[C@H](C(=O)NC(C)(C)C(=O)N[C@@H](CC(=O)O)C(=O)O)[C@@H](C)CC)NC(=O)[C@H]([C@@H](C)CC)NC(=O)[C@@H]2CCCN2C(=O)[C@@H]2CCCN2C(=O)[C@H](CC(C)C)NC(=O)[C@H](CO)NC(=O)[C@H](CCCNC(=N)N)NC(=O)[C@H](CO)NC1=O
B7: IC+SRSLP-(Oic)-I-(Pen)+IPD-NH2 (peptide)
peptide: ICSRSLP[Oic]I[Pen]IPD-NH2
modifications: disulfide 2-10; N-terminus assumed
SMILES: CC[C@H](C)[C@H](N)C(=O)N[C@H]1CSSC(C)(C)[C@@H](C(=O)N[C@H](C(=O)N2CCC[C@H]2C(=O)N[C@@H](CC(=O)O)C(N)=O)[C@@H](C)CC)NC(=O)[C@H]([C@@H](C)CC)NC(=O)[C@@H]2C[C@@H]3CCCC[C@@H]3N2C(=O)[C@@H]2CCCN2C(=O)[C@H](CC(C)C)NC(=O)[C@H](CO)NC(=O)[C@H](CCCNC(=N)N)NC(=O)[C@H](CO)NC1=O
B8: (Tranexamic)-IC+SRS-((tBu)A)-PPI-((N-Me)C)+I-NH2 (peptide)
peptide: {Tranexamic″}-ICSRS[tBuAla]PPI[NMeC]I-NH2
modifications: disulfide 2-10
SMILES: CC[C@H](C)[C@H](NC(=O)[C@@H]1CSSC[C@H](NC(=O)[C@@H](NC(=O)[C@H]2CC[C@@H](CN)CC2)[C@@H](C)CC)C(=O)N[C@@H](CO)C(=O)N[C@@H](CCCNC(=N)N)C(=O)N[C@@H](CO)C(=O)N[C@@H](CC(C)(C)C)C(=O)N2CCC[C@H]2C(=O)N2CCC[C@H]2C(=O)N[C@@H]([C@@H](C)CC)C(=O)N1C)C(N)=O
B9: (Cyclobutylacetic)-IC+SRS-((tBu)A)-PPI-(Pen)+IP-NH2 (peptide)
peptide: Cyclobutylacetic-ICSRS[tBuAla]PPI[Pen]IP-NH2
modifications: disulfide 2-10
SMILES: CC[C@H](C)[C@H](NC(=O)CC1CCC1)C(=O)N[C@H]1CSSC(C)(C)[C@@H](C(=O)N[C@H](C(=O)N2CCC[C@H]2C(N)=O)[C@@H](C)CC)NC(=O)[C@H]([C@@H](C)CC)NC(=O)[C@@H]2CCCN2C(=O)[C@@H]2CCCN2C(=O)[C@H](CC(C)(C)C)NC(=O)[C@H](CO)NC(=O)[C@H](CCCNC(=N)N)NC(=O)[C@H](CO)NC1=O
B10: ((N-Ph)G)-IC+SRS-((tBu)A)-PPI-((N-Me)C)+I-NH2 (peptide)
peptide: [NPhGly]ICSRS[tBuAla]PPI[NMeC]I-NH2
modifications: disulfide 3-11; N-terminus assumed
SMILES: CC[C@H](C)[C@H](NC(=O)[C@@H]1CSSC[C@H](NC(=O)[C@@H](NC(=O)CNc2ccccc2)[C@@H](C)CC)C(=O)N[C@@H](CO)C(=O)N[C@@H](CCCNC(=N)N)C(=O)N[C@@H](CO)C(=O)N[C@@H](CC(C)(C)C)C(=O)N2CCC[C@H]2C(=O)N2CCC[C@H]2C(=O)N[C@@H]([C@@H](C)CC)C(=O)N1C)C(N)=O
B11: ((N-Me)G)-IC+SRSLPPIC+I-((trans-4-Fluoro)P)-D-OH (peptide)
peptide: [Sar]ICSRSLPPICI[Pro(trans-4-F)]D-OH
modifications: disulfide 3-11; N-terminus assumed
SMILES: CC[C@H](C)[C@H](NC(=O)CNC)C(=O)N[C@H]1CSSC[C@@H](C(=O)N[C@H](C(=O)N2C[C@H](F)C[C@H]2C(=O)N[C@@H](CC(=O)O)C(=O)O)[C@@H](C)CC)NC(=O)[C@H]([C@@H](C)CC)NC(=O)[C@@H]2CCCN2C(=O)[C@@H]2CCCN2C(=O)[C@H](CC(C)C)NC(=O)[C@H](CO)NC(=O)[C@H](CCCNC(=N)N)NC(=O)[C@H](CO)NC1=O
B12: AIC+SRSLP-(Oic)-IC+I-OH (peptide)
peptide: AICSRSLP[Oic]ICI-OH
modifications: disulfide 3-11; N-terminus assumed
SMILES: CC[C@H](C)[C@H](NC(=O)[C@@H]1CSSC[C@H](NC(=O)[C@@H](NC(=O)[C@H](C)N)[C@@H](C)CC)C(=O)N[C@@H](CO)C(=O)N[C@@H](CCCNC(=N)N)C(=O)N[C@@H](CO)C(=O)N[C@@H](CC(C)C)C(=O)N2CCC[C@H]2C(=O)N2[C@@H](C[C@@H]3CCCC[C@@H]32)C(=O)N[C@@H]([C@@H](C)CC)C(=O)N1)C(=O)O
B13: ((N-Me)G)-IC+TRSLPPIC+IPD-OH (peptide)
peptide: [Sar]ICTRSLPPICIPD-OH
modifications: disulfide 3-11; N-terminus assumed
SMILES: CC[C@H](C)[C@H](NC(=O)CNC)C(=O)N[C@H]1CSSC[C@@H](C(=O)N[C@H](C(=O)N2CCC[C@H]2C(=O)N[C@@H](CC(=O)O)C(=O)O)[C@@H](C)CC)NC(=O)[C@H]([C@@H](C)CC)NC(=O)[C@@H]2CCCN2C(=O)[C@@H]2CCCN2C(=O)[C@H](CC(C)C)NC(=O)[C@H](CO)NC(=O)[C@H](CCCNC(=N)N)NC(=O)[C@H]([C@@H](C)O)NC1=O
B14: ((N-Me)G)-IC+SRSLPP-(Chg)-C+IPD-NH2 (peptide)
peptide: [Sar]ICSRSLPP[Chg]CIPD-NH2
modifications: disulfide 3-11; N-terminus assumed
SMILES: CC[C@H](C)[C@H](NC(=O)CNC)C(=O)N[C@H]1CSSC[C@@H](C(=O)N[C@H](C(=O)N2CCC[C@H]2C(=O)N[C@@H](CC(=O)O)C(N)=O)[C@@H](C)CC)NC(=O)[C@H](C2CCCCC2)NC(=O)[C@@H]2CCCN2C(=O)[C@@H]2CCCN2C(=O)[C@H](CC(C)C)NC(=O)[C@H](CO)NC(=O)[C@H](CCCNC(=N)N)NC(=O)[C@H](CO)NC1=O

target: Recombinant human MASP2 enzyme (fragment corresponding to amino acids 297-686, C-terminal His Tag) (human, UniProt O00187 297-686); experiment: cell-based or functional assay
Sequence (O00187 other isoform, or with tags, fused parts or gaps limits assumed): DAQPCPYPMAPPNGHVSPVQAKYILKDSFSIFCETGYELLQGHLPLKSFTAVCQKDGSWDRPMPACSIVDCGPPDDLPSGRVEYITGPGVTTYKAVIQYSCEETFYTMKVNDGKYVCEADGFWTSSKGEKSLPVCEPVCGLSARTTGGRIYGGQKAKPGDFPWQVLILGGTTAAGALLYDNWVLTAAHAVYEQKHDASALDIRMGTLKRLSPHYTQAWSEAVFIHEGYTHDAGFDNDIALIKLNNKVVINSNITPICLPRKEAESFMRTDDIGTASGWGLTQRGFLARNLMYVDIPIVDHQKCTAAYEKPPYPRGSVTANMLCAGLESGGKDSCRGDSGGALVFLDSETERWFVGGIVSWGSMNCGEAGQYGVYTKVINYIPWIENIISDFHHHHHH

human MASP2 IC50 [nM] | Binder
81 | B1
535 | B2
910 | B3
500 | B4
160 | B5
160 | B6
12 | {Tetrahydro‑2H‑pyran‑3‑ylacetic acid}-ICSRSLP[Oic]I[Pen]IP-NH2 (disulfide 2-10) [(Tetrahydro-2H-pyran-3-ylacetic acid)-IC+SRSLP-(Oic)-I-(Pen)+IP-NH2]
603 | B7
26 | B8
9.3 | B9
42 | B10
490 | B11
930 | B12
6500 | B13
891 | B14

target: T1, Recombinant human MASP1 enzyme …; experiment: cell-based or functional assay

human MASP1 IC50 [nM] | Binder
16 | B1
15 | B2
18 | B3
18 | B4
16 | B5
16 | B6
17 | {Tetrahydro‑2H‑pyran‑3‑ylacetic acid}-ICSRSLP[Oic]I[Pen]IP-NH2 (disulfide 2-10) [(Tetrahydro-2H-pyran-3-ylacetic acid)-IC+SRSLP-(Oic)-I-(Pen)+IP-NH2]
17 | B7
15 | B8
15 | B9
18 | B10
16 | B11
16 | B12
16 | B13
15 | B14
